Reference: patent publication US20240327497A1
Where “and” joins values, the source holds several entries; their conditions need not be identical. Equal values may be shown once.

Columns and labels:
[1] = biological target: canine FcRn (FcRn large subunit with canine beta-2-microglobulin) (canine); assay: SPR pH 5.5, SASA-Fc captured on BSA, FcRn 100-800 nM
[2] = biological target: canine FcRn (FcRn large subunit with canine beta-2-microglobulin) (canine); assay: SPR pH 5.5, SASA-Fc captured on BSA, FcRn 200 nM
[3] = biological target: canine FcRn (FcRn large subunit with canine beta-2-microglobulin) (canine); assay: SPR pH 5.5, SASA-Fc captured on BSA, FcRn 200 nM; remark: listed apart in the source
[4] = biological target: canine FcRn (FcRn large subunit with canine beta-2-microglobulin) (canine); assay: SPR pH 5.5, SASA-Fc captured on BSA, FcRn 200 nM; remark: listed apart in the source
[5] = biological target: canine FcRn (FcRn large subunit with canine beta-2-microglobulin) (canine); assay: SPR pH 5.5, SASA-Fc captured on BSA, FcRn 200 nM; remark: listed apart in the source

| Binder | Kd [1] [nM] | koff [1] [s⁻¹] | kon [1] [M⁻¹ s⁻¹] | Kd [2] | koff [2] | kon [2] | Kd [3] | koff [3] | kon [3] | also measured |
| --- | --- | --- | --- | --- | --- | --- | --- | --- | --- | --- |
| canine IgGB Fc (CH2-CH3) N434Y with N-terminal SASA tag (Fc fusion, part only; not given: SASA tag, not shown: another chain or arm of the molecule; small tags and cut ends) Fc: APEMLGGPSVFIFPPKPKDTLLIARTPEVTCVVVDLDPEDPEVQISWFVDGKQMQTAKTQPREEQFNGTYRVVSVLPIGHQDWLKGKQFTCKVNNKALPSPIERTISKARGQAHQPSVYVLPPSREELSKNTVSLTCLIKDFFPPDIDVEWQSNGQQEPESKYRTTPPQLDEDGSYFLYSKLSVDKSRWQRGDTFICAVMHEALHYHYTQESLSHSPGK | 29.1 | 0.0151 | 520000 | – | – | – | 15.9 nM | 0.00968 s⁻¹ | 607000 M⁻¹ s⁻¹ | – |
| canine IgGB Fc (CH2-CH3) L252Y with N-terminal SASA tag (Fc fusion, part only; not given: SASA tag, not shown: another chain or arm of the molecule; small tags and cut ends) Fc: APEMLGGPSVFIFPPKPKDTLYIARTPEVTCVVVDLDPEDPEVQISWFVDGKQMQTAKTQPREEQFNGTYRVVSVLPIGHQDWLKGKQFTCKVNNKALPSPIERTISKARGQAHQPSVYVLPPSREELSKNTVSLTCLIKDFFPPDIDVEWQSNGQQEPESKYRTTPPQLDEDGSYFLYSKLSVDKSRWQRGDTFICAVMHEALHNHYTQESLSHSPGK | 173 | 0.0476 | 275000 | – | – | – | – | – | – | Kd [4]: 98.7 nM and 114 nM; koff [4]: 0.0397 s⁻¹ and 0.041 s⁻¹; kon [4]: 402000 M⁻¹ s⁻¹ and 358000 M⁻¹ s⁻¹ |
| canine IgGB Fc (CH2-CH3) N434W with N-terminal SASA tag (Fc fusion, part only; not given: SASA tag, not shown: another chain or arm of the molecule; small tags and cut ends) Fc: APEMLGGPSVFIFPPKPKDTLLIARTPEVTCVVVDLDPEDPEVQISWFVDGKQMQTAKTQPREEQFNGTYRVVSVLPIGHQDWLKGKQFTCKVNNKALPSPIERTISKARGQAHQPSVYVLPPSREELSKNTVSLTCLIKDFFPPDIDVEWQSNGQQEPESKYRTTPPQLDEDGSYFLYSKLSVDKSRWQRGDTFICAVMHEALHWHYTQESLSHSPGK | 101 | 0.045 | 446000 | – | – | – | 40.4 nM and 75.7 nM | – | – | – |
| canine IgGB Fc (CH2-CH3) A254T with N-terminal SASA tag (Fc fusion, part only; not given: SASA tag, not shown: another chain or arm of the molecule; small tags and cut ends) Fc: APEMLGGPSVFIFPPKPKDTLLITRTPEVTCVVVDLDPEDPEVQISWFVDGKQMQTAKTQPREEQFNGTYRVVSVLPIGHQDWLKGKQFTCKVNNKALPSPIERTISKARGQAHQPSVYVLPPSREELSKNTVSLTCLIKDFFPPDIDVEWQSNGQQEPESKYRTTPPQLDEDGSYFLYSKLSVDKSRWQRGDTFICAVMHEALHNHYTQESLSHSPGK | – | – | – | – | – | – | – | – | – | Kd [5]: 2290 nM and 1340 nM; koff [5]: 0.375 s⁻¹ and 0.433 s⁻¹; kon [5]: 163000 M⁻¹ s⁻¹ and 323000 M⁻¹ s⁻¹ |
| canine IgGB Fc (CH2-CH3) N434R with N-terminal SASA tag (Fc fusion, part only; not given: SASA tag, not shown: another chain or arm of the molecule; small tags and cut ends) Fc: APEMLGGPSVFIFPPKPKDTLLIARTPEVTCVVVDLDPEDPEVQISWFVDGKQMQTAKTQPREEQFNGTYRVVSVLPIGHQDWLKGKQFTCKVNNKALPSPIERTISKARGQAHQPSVYVLPPSREELSKNTVSLTCLIKDFFPPDIDVEWQSNGQQEPESKYRTTPPQLDEDGSYFLYSKLSVDKSRWQRGDTFICAVMHEALHRHYTQESLSHSPGK | 182 | 0.0801 | 440000 | – | – | – | 107 nM and 159 nM | 0.0524 s⁻¹ and 0.0633 s⁻¹ | 488000 M⁻¹ s⁻¹ and 399000 M⁻¹ s⁻¹ | – |
| canine IgGB Fc (CH2-CH3) A426H with N-terminal SASA tag (Fc fusion, part only; not given: SASA tag, not shown: another chain or arm of the molecule; small tags and cut ends) Fc: APEMLGGPSVFIFPPKPKDTLLIARTPEVTCVVVDLDPEDPEVQISWFVDGKQMQTAKTQPREEQFNGTYRVVSVLPIGHQDWLKGKQFTCKVNNKALPSPIERTISKARGQAHQPSVYVLPPSREELSKNTVSLTCLIKDFFPPDIDVEWQSNGQQEPESKYRTTPPQLDEDGSYFLYSKLSVDKSRWQRGDTFICHVMHEALHNHYTQESLSHSPGK | 343 | 0.106 | 308000 | 160 nM and 153 nM | 0.135 s⁻¹ and 0.14 s⁻¹ | 843000 M⁻¹ s⁻¹ and 915000 M⁻¹ s⁻¹ | – | – | – | – |
| canine IgGB Fc (CH2-CH3) D312P with N-terminal SASA tag (Fc fusion, part only; not given: SASA tag, not shown: another chain or arm of the molecule; small tags and cut ends) Fc: APEMLGGPSVFIFPPKPKDTLLIARTPEVTCVVVDLDPEDPEVQISWFVDGKQMQTAKTQPREEQFNGTYRVVSVLPIGHQPWLKGKQFTCKVNNKALPSPIERTISKARGQAHQPSVYVLPPSREELSKNTVSLTCLIKDFFPPDIDVEWQSNGQQEPESKYRTTPPQLDEDGSYFLYSKLSVDKSRWQRGDTFICAVMHEALHNHYTQESLSHSPGK | – | – | – | 291 nM and 439 nM | 0.0894 s⁻¹ and 0.11 s⁻¹ | 307000 M⁻¹ s⁻¹ and 251000 M⁻¹ s⁻¹ | – | – | – | – |

Second part, led by results:

| Kd [1] [nM] | koff [1] [s⁻¹] | kon [1] [M⁻¹ s⁻¹] | Kd [2] | koff [2] | kon [2] | Kd [3] | koff [3] | kon [3] | Binder | also measured |
| --- | --- | --- | --- | --- | --- | --- | --- | --- | --- | --- |
| 389 | 0.102 | 262000 | 146 nM and 143 nM | 0.109 s⁻¹ and 0.112 s⁻¹ | 750000 M⁻¹ s⁻¹ and 785000 M⁻¹ s⁻¹ | – | – | – | canine IgGB Fc (CH2-CH3) A426Y with N-terminal SASA tag (Fc fusion, part only; not given: SASA tag, not shown: another chain or arm of the molecule; small tags and cut ends) Fc: APEMLGGPSVFIFPPKPKDTLLIARTPEVTCVVVDLDPEDPEVQISWFVDGKQMQTAKTQPREEQFNGTYRVVSVLPIGHQDWLKGKQFTCKVNNKALPSPIERTISKARGQAHQPSVYVLPPSREELSKNTVSLTCLIKDFFPPDIDVEWQSNGQQEPESKYRTTPPQLDEDGSYFLYSKLSVDKSRWQRGDTFICYVMHEALHNHYTQESLSHSPGK | – |
| – | – | – | – | – | – | 924 nM and 1050 nM | 0.207 s⁻¹ and 0.209 s⁻¹ | 225000 M⁻¹ s⁻¹ and 199000 M⁻¹ s⁻¹ | canine IgGB Fc (CH2-CH3) N434S with N-terminal SASA tag (Fc fusion, part only; not given: SASA tag, not shown: another chain or arm of the molecule; small tags and cut ends) Fc: APEMLGGPSVFIFPPKPKDTLLIARTPEVTCVVVDLDPEDPEVQISWFVDGKQMQTAKTQPREEQFNGTYRVVSVLPIGHQDWLKGKQFTCKVNNKALPSPIERTISKARGQAHQPSVYVLPPSREELSKNTVSLTCLIKDFFPPDIDVEWQSNGQQEPESKYRTTPPQLDEDGSYFLYSKLSVDKSRWQRGDTFICAVMHEALHSHYTQESLSHSPGK | – |
